pKd: −log10 of the molar value.

The first test deals with TG6 TCR, acid-base leucine zipper stabilized, soluble, biotinylated (mouse). Nature of the test: SPR.
Settings: not given
As for “soluble L^d-HF10 with alanine at peptide position 4 (peptide-MHC)”, the pKd (usually the negative decadic logarithm of the Kd, by convention in mol/L) is 5.62.

As to “soluble L^d-HF10 with alanine at peptide position 1 (peptide-MHC)”, the pKd is 5.99. With “soluble L^d-HF10 (L^d α1-α3 with HF10 fused via a linker to β2m, disulfide-trapped) (peptide-MHC)”, the pKd was 6.40. In the case of “soluble L^d-HF10 with alanine at peptide position 9 (peptide-MHC)”, the pKd is 3.77.

Substance “soluble L^d-HF10 (HF10 fused via a linker to β2m, disulfide-trapped), wild-type peptide (peptide-MHC)” gave a pKd of 6.38. As for “soluble L^d-HF10 with alanine at peptide position 2 (peptide-MHC)”, the pKd is 5.74. The substance “soluble L^d-HF10 with alanine at peptide position 5 (peptide-MHC)” showed a pKd of 5.73.

In the next test the target is H2-L^d on TAP-deficient RMA-S.L^d cells. Nature of the test: flow cytometry on cells (RMA-S.Ld surface Ld stabilisation). As to conditions: read at the highest peptide concentration, log [peptide in µM] = 0; parent: est. 670; read off a plot. (Flow cytometry measures light scatter and fluorescence of single cells or particles in a stream.)
HF10 peptide p4A: the response was 720 MFI. Take HF10 peptide p2A: the response amounted to 100 MFI. Still for that read-out and setting: then HF10 peptide p10A, with 60 MFI; and HF10 peptide p8A, with 120 MFI; and HF10 peptide p3A, with 690 MFI.

HF10 peptide p5A: the response was 400 MFI. Take HF10 peptide p9A: the response came out at 430 MFI.

For the substance HF10 peptide p6A, the response is 440 MFI.

Turning to HF10 peptide p7A, the response was 670 MFI. In the case of HF10 peptide p1A, the response amounted to 550 MFI.

In a further test the test system is tetramer+ CD8 T cells. Nature of the test: Immunization with peptide-loaded dendritic cells, expansion of tetramer+ CD8 T cells. It is filed as in vivo. The note with it: F1 (H2^bxd) mice, 5x10^6 dendritic cells loaded with 1μM peptide s.c., spleen 7 days post immunization, versus numbers in naive mice. The procedure:
Bone marrow-derived dendritic cells from male mice were incubated with 1μM of peptide for 3 hours at 37°C. Cells were washed and 5x10^6 peptide-loaded dendritic cells were injected subcutaneously into naive F1 (H2^bxd) female mice. Mice were sacrificed 7 days post immunization. Peptide sequences: HF10: HPGSVNEFDF; ROP5: YAVANYFFL; GRA4: SPMNGGYYM.
Figure 1 Characteristics of the L^d-HF10 specific T cell response. (A) T. gondii-specific CD8 T cells were quantified by pMHC tetramer staining and flow cytometry of splenocytes at different time points after intraperitoneal infection of F1 (B6xB6.C) mice. Fold change between naive and expanded T cells was calculated using the average number of tetramer+ cells in each population in naive mice (GRA6 = 74.4, ROP5: 654.9, GRA4: 1330). (B) Flow cytometric analysis of size (FSC or forward scatter) or expression of activation and effector markers (CD71, KLRG1, and CD25) on gated tetramer^+ splenic CD8 T cells at day 5 post infection. (C) Mice were immunized with bone marrow-derived dendritic cells loaded with the indicated peptides. Expanded tetramer^+ CD8 T cells were quantified by tetramer staining of splenocytes 7 days post immunization (open circles). Numbers of tetramer^+ CD8 T cells in the spleen were quantified by tetramer enrichment of naïve mice and were used to calculate the fold expansion of each antigen-specific T cell population (closed circles). Statistical significance of differences in fold change between the three groups was calculated using Mann-Whitney tests. GRA6 vs. GRA4: p < 0.0001, GRA6 vs. ROP5: p < 0.0001, GRA4 vs. ROP5: p=0.0002. Statistical significance between tetramer+ T cell populations was calculated by two-way ANOVA. The interaction p-values are as follows: GRA6 vs. GRA4: p < 0.0001, GRA6 vs. ROP5: p < 0.0001, GRA4 vs. ROP5: p=0.99. (D) The frequency of Vβ2 usage amongst L^d-HF10 specific splenic CD8 T cells tetramer enriched from naïve mice or found in T. gondii-infected mice was determined by flow cytometry. […] Clonal diversity in L^d-HF10 specific CD8 T cells was analyzed using the TCRdist algorithm ([40]). […]
For the substance YAVANYFFL [ROP5], the “Fold expansion of tetramer+ CD8 T cells” value was 300 x.

On to “HPGSVNEFDF [HF10, 10mer peptide from the C-terminus of T. gondii protein GRA6, presented by MHC-I L^d]”, for which the “Fold expansion of tetramer+ CD8 T cells” value was found to be 4000 x. Consider SPMNGGYYM [GRA4], for which the “Fold expansion of tetramer+ CD8 T cells” value is recorded as 50 x.

Another test relates to TG6 TCR. The test can be described thus: Surface plasmon resonance of L^d-HF10 (WT and alanine variants) binding to immobilised TG6 TCR. The note with it: SPR, BIAcore SA chip, ~2000 RU biotinylated TG6 TCR; soluble L^d-peptide injected; two-state reaction fit. Also on record: species or system mouse. An excerpt: We used two systems to generate L^d-HF10. For biophysical and crystallographic studies of pMHC, we produced soluble L^d-HF10 by baculovirus-infected insect cell expression ([26]). The DNA encoding L^d (α1-α3) and HF10 (or alanine substituted variants) fused via a linker to β2m were cloned into pbac plasmid under polyhedrin and p10 promoters to produce secreted soluble Ld-HF10 from Hi5 insect cells. In this construct, L^d Tyr 84 and Gly at peptide p12 position from the linker that attaches β2m to pHF10 were mutated to cysteines to form a disulfide bond ([27]). Secreted L^d-HF10 in insect cell medium was captured with immunoaffinity chromatography and further purified by GE Healthcare FPLC Superdex 200 10/300 GL size exclusion column. For the crystallography of the TCR/peptide/MHC ternary complex, we produced the wild type L^d variable region (α1-α2). L^d (α1-α2) was expressed in E. coli BL21 as an inclusion body, solubilized in 8M urea, and refolded with synthetic HF10 peptide (HPGSVNEFDF, ordered from Peptide 2.0 Inc.) ([28], [29]). Refolded L^d-HF10 was further purified with a HiLoad Superdex 200 26/600 size chromatography column.
TG6 α and β TCR chains were also produced by both baculovirus insect cell and bacterial expression systems. […]
Approximately 2000 RU of biotinylated TG6 TCR was captured in the flow cells of a BIAcore streptavidin (SA) BIAsensor chip. Various concentrations of insect cell-produced L^d-HF10 and its mutated variant peptides were injected into the sensor chip and the association and dissociation kinetics were recorded and then corrected for the fluid phase SPR signal using the data from the biotinylated mouse BDC2.5 TCR. Kinetics was analyzed with BIAcore BIAEval 4 software. […]
(A) Corrected surface plasmon resonance (SPR) data for the binding of various concentrations of soluble L^d-HF10 to ~2000 RU of biotinylated TG6 TCR immobilized in flow cell on SA sensor chip. […] Upregulation of surface CD25 and CD44 in response to TCR stimulation was measured by flow cytometry. […]
With “HPGSVNEFDF [HF10, 10mer peptide from the C-terminus of T. gondii protein GRA6, presented by MHC-I L^d]”, the ka2 is 0.002 s⁻¹, the kd1 is 0.014 s⁻¹ and the kd2 worked out at 0.005 s⁻¹.

For the origin of these results see article PMC9372435, “Peptide Centric Vβ Specific Germline Contacts Shape a Specialist T Cell Response” (Frontiers in Immunology, 2022).
